Data from patent publication US20230406885A1, “CYCLIC PEPTIDES FOR TRAPPING INTERLEUKIN-1 BETA” (MERCK SHARP & DOHME LLC, priority 2022, published 2023).
*1 amine or outer side, *2 acyl side, *3 side chain or, on linkers, in order; H or OH if unused. [ ]: non-standard residue; d: D form. 3AzaPhe4AcPip = (S)-3-(6-(4-acetylpiperazin-1-yl)pyridin-3-yl)-2-aminopropanoic acid, CC(=O)N1CCN(c2ccc(C[C@H](N[*:1])C(=O)[*:2])cn2)CC1; Pro(trans-4-NH2) = O=C([C@@H]1C[C@@H](N[*:3])CN1[*:1])[*:2]; Bip(4'-COOH) = N[C@@H](Cc1ccc(-c2ccc(C(=O)O)cc2)cc1)C(=O)O; 1Nal(3S-Me) = C[C@@H](c1cccc2ccccc12)[C@H](N)C(=O)O; Phe(4-COOH) = N[C@@H](Cc1ccc(C(=O)O)cc1)C(=O)O; h3Pal(5-CN) = N#Cc1cncc(CC[C@H](N)C(=O)O)c1; hCha = N[C@@H](CCC1CCCCC1)C(=O)O; tBuAla = CC(C)(C)C[C@H](N)C(=O)O; dNle = CCCC[C@@H](N)C(=O)O; dNva = CCC[C@@H](N)C(=O)O; dNMeA = CN[C@H](C)C(=O)O

B1: SEQ ID NO: 181 (Example No. 181) (peptide)
peptide: cyclo([3AzaPhe4AcPip]W[Phe(4-COOH)]G[Pro(trans-4-NH2)][1Nal(3S-Me)]D[dNMeA]G[Bip(4'-COOH)]K[tBuAla][dA][h3Pal(5-CN)])
SMILES: CC(=O)N1CCN(c2ccc(C[C@@H]3NC(=O)[C@H](CCc4cncc(C#N)c4)NC(=O)[C@@H](C)NC(=O)[C@H](CC(C)(C)C)NC(=O)[C@H](CCCCN)NC(=O)[C@H](Cc4ccc(-c5ccc(C(=O)O)cc5)cc4)NC(=O)CNC(=O)[C@@H](C)N(C)C(=O)[C@H](CC(=O)O)NC(=O)[C@H]([C@@H](C)c4cccc5ccccc45)NC(=O)[C@@H]4C[C@@H](N)CN4C(=O)CNC(=O)[C@H](Cc4ccc(C(=O)O)cc4)NC(=O)[C@H](Cc4c[nH]c5ccccc45)NC3=O)cn2)CC1
B2: SEQ ID NO: 179 (Example No. 179) (peptide)
peptide: cyclo([3AzaPhe4AcPip]W[Phe(4-COOH)]G[Pro(trans-4-NH2)][1Nal(3S-Me)]D[dNMeA]G[Bip(4'-COOH)]KL[dNle][h3Pal(5-CN)])
SMILES: CCCC[C@H]1NC(=O)[C@H](CC(C)C)NC(=O)[C@H](CCCCN)NC(=O)[C@H](Cc2ccc(-c3ccc(C(=O)O)cc3)cc2)NC(=O)CNC(=O)[C@@H](C)N(C)C(=O)[C@H](CC(=O)O)NC(=O)[C@H]([C@@H](C)c2cccc3ccccc23)NC(=O)[C@@H]2C[C@@H](N)CN2C(=O)CNC(=O)[C@H](Cc2ccc(C(=O)O)cc2)NC(=O)[C@H](Cc2c[nH]c3ccccc23)NC(=O)[C@H](Cc2ccc(N3CCN(C(C)=O)CC3)nc2)NC(=O)[C@H](CCc2cncc(C#N)c2)NC1=O
B3: SEQ ID NO: 180 (Example No. 180) (peptide)
peptide: cyclo([3AzaPhe4AcPip]W[Phe(4-COOH)]G[Pro(trans-4-NH2)][1Nal(3S-Me)]D[dNMeA]G[Bip(4'-COOH)]KL[dNva][h3Pal(5-CN)])
SMILES: CCC[C@H]1NC(=O)[C@H](CC(C)C)NC(=O)[C@H](CCCCN)NC(=O)[C@H](Cc2ccc(-c3ccc(C(=O)O)cc3)cc2)NC(=O)CNC(=O)[C@@H](C)N(C)C(=O)[C@H](CC(=O)O)NC(=O)[C@H]([C@@H](C)c2cccc3ccccc23)NC(=O)[C@@H]2C[C@@H](N)CN2C(=O)CNC(=O)[C@H](Cc2ccc(C(=O)O)cc2)NC(=O)[C@H](Cc2c[nH]c3ccccc23)NC(=O)[C@H](Cc2ccc(N3CCN(C(C)=O)CC3)nc2)NC(=O)[C@H](CCc2cncc(C#N)c2)NC1=O
B4: SEQ ID NO: 177 (Example No. 177) (peptide)
peptide: cyclo([3AzaPhe4AcPip]W[Phe(4-COOH)]G[Pro(trans-4-NH2)][1Nal(3S-Me)]D[dNMeA]G[Bip(4'-COOH)]KL[dA][hCha])
SMILES: CC(=O)N1CCN(c2ccc(C[C@@H]3NC(=O)[C@H](CCC4CCCCC4)NC(=O)[C@@H](C)NC(=O)[C@H](CC(C)C)NC(=O)[C@H](CCCCN)NC(=O)[C@H](Cc4ccc(-c5ccc(C(=O)O)cc5)cc4)NC(=O)CNC(=O)[C@@H](C)N(C)C(=O)[C@H](CC(=O)O)NC(=O)[C@H]([C@@H](C)c4cccc5ccccc45)NC(=O)[C@@H]4C[C@@H](N)CN4C(=O)CNC(=O)[C@H](Cc4ccc(C(=O)O)cc4)NC(=O)[C@H](Cc4c[nH]c5ccccc45)NC3=O)cn2)CC1
B5: SEQ ID NO: 178 (Example No. 178) (peptide)
peptide: cyclo([3AzaPhe4AcPip]W[Phe(4-COOH)]G[Pro(trans-4-NH2)][1Nal(3S-Me)]D[dNMeA]G[Bip(4'-COOH)]KL[dL][h3Pal(5-CN)])
SMILES: CC(=O)N1CCN(c2ccc(C[C@@H]3NC(=O)[C@H](CCc4cncc(C#N)c4)NC(=O)[C@@H](CC(C)C)NC(=O)[C@H](CC(C)C)NC(=O)[C@H](CCCCN)NC(=O)[C@H](Cc4ccc(-c5ccc(C(=O)O)cc5)cc4)NC(=O)CNC(=O)[C@@H](C)N(C)C(=O)[C@H](CC(=O)O)NC(=O)[C@H]([C@@H](C)c4cccc5ccccc45)NC(=O)[C@@H]4C[C@@H](N)CN4C(=O)CNC(=O)[C@H](Cc4ccc(C(=O)O)cc4)NC(=O)[C@H](Cc4c[nH]c5ccccc45)NC3=O)cn2)CC1

biological target: Recombinant human IL-1β (BioLegend 579404) (human, UniProt P01584 117-269); assay: cell-based or functional assay

MRC5 IC50 [nM]	Binder
0.015	B1
0.017	B2
0.021	B3
0.013	B4
0.019	B5
